Results: the supplement of paper PMC10567573

B1: C2CD2L (parent)
chain: EPAGSLRELGVWRSLLRLRATRAG
B2: TOR1AIP2 (parent)
chain: DGAGRTWQDSDTVKLLVDLELSYG

Variants of: B1
Experiment: protein stability index of a GFP-peptide fusion (GPS, HEK-293T) (PSI 1-6); higher = more stable
Conditions: c terminus: a fixed tail appended
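Note: lentivirally expressed fusions sorted by FACS into six bins by GFP to DsRed ratio, PSI derived from sequencing read proportions per bin multiplied by bin number.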

In order of falling protein stability index:
1. EPAGSLRELGVWRSLLDLRATRAG  3.73
2. EPAGSLRELGVWRSLLRLRDTRAG  3.34
3. EPAGSLRELGVWRSLLGLRATRAG  3.26
4. EPAGSLRELGVWRSLLRLRPTRAG  3.18
5. EPAGSLRELGVWRSLLELRATRAG  3.13
6. EPAGSLRELGVWRSLLSLRATRAG  3.04
7. EPAGSLRELGVWRSLLRLRETRAG  3
8. EPAGSLRELGVWRSLLALRATRAG  2.91
9. EPAGSLRELGVWHSLLRLRATRAG  2.86
10. EPAGSLRELGVWRSLLRLRHTRAG  2.67
11. EPAGSLRELGVWRSLLHLRATRAG  2.65
12. EPAGSLRELGVWDSLLRLRATRAG  2.62
13. EPAGSLRELGVWRSLLRLRLTRAG  2.58
14. EPAGSLRELGVWQSLLRLRATRAG  2.56
15. EPAGSLRELGVWPSLLRLRATRAG  2.55
16. EPAGSLRELGVWRSLLRLRMTRAG  2.48
17. EPAGSLRELGVWRSLLILRATRAG  2.46
18. EPAGSLRELGVWRSLLTLRATRAG  2.3
19. EPAGSLRELGVWRSLLCLRATRAG  2.15
20. EPAGSLRELGVWTSLLRLRATRAG  2.05
21. EPAGSLRELGVWRSLLRLRQTRAG  2.04
22. EPAGSLRELGVWRSLLFLRATRAG  1.95
23. EPAGSLRELGVWRSLLRLRSTRAG  1.94
24. EPAGSLRELGVWYSLLRLRATRAG  1.91
25. EPAGSLRELGVWRSLLRLRTTRAG  1.85
26. EPAGSLRELGVWRSLLWLRATRAG  1.6
27. EPAGSLRELGVWRSLLLLRATRAG  1.53
28. EPAGSLRELGVWRSLLMLRATRAG  1.2

Variants of: B2
Experiment: as above
Conditions: c terminus: a fixed tail appended

In order of falling protein stability index:
1. DTAGRTWQDSDTVKLLVDLELSYG  4.39
2. KGAGRTWQDSDTVKLLVDLELSYG  4.34
3. DGAYRTWQDSDTVKLLVDLELSYG  3.85
4. DCAGRTWQDSDTVKLLVDLELSYG  3.68
5. DGAGHTWQDSDTVKLLVDLELSYG  3.25
6. TGAGRTWQDSDTVKLLVDLELSYG  3.05
7. DKAGRTWQDSDTVKLLVDLELSYG  3.03
8. WGAGRTWQDSDTVKLLVDLELSYG  2.93
9. DGAGNTWQDSDTVKLLVDLELSYG  2.74
10. DQAGRTWQDSDTVKLLVDLELSYG  2.69
11. DGAGETWQDSDTVKLLVDLELSYG  2.67
12. DGAKRTWQDSDTVKLLVDLELSYG  2.63
13. DGAERTWQDSDTVKLLVDLELSYG  2.58
14. DGCGRTWQDSDTVKLLVDLELSYG  2.55
15. DDAGRTWQDSDTVKLLVDLELSYG  2.53
16. DYAGRTWQDSDTVKLLVDLELSYG  2.53
17. DGMGRTWQDSDTVKLLVDLELSYG  2.51
18. DGYGRTWQDSDTVKLLVDLELSYG  2.5
19. DGAGDTWQDSDTVKLLVDLELSYG  2.39
20. DGAIRTWQDSDTVKLLVDLELSYG  2.38
21. DGALRTWQDSDTVKLLVDLELSYG  2.34
22. DPAGRTWQDSDTVKLLVDLELSYG  2.31
23. HGAGRTWQDSDTVKLLVDLELSYG  2.29
24. DAAGRTWQDSDTVKLLVDLELSYG  2.29
25. DGAGLTWQDSDTVKLLVDLELSYG  2.27
26. DGAFRTWQDSDTVKLLVDLELSYG  2.26
27. DGAVRTWQDSDTVKLLVDLELSYG  2.22
28. DGAPRTWQDSDTVKLLVDLELSYG  2.12
29. DGAGKTWQDSDTVKLLVDLELSYG  2.1
30. DRAGRTWQDSDTVKLLVDLELSYG  2.06
31. DGATRTWQDSDTVKLLVDLELSYG  2.05
32. DGANRTWQDSDTVKLLVDLELSYG  2.05
33. DGACRTWQDSDTVKLLVDLELSYG  2.02
34. DNAGRTWQDSDTVKLLVDLELSYG  2.01
35. DGASRTWQDSDTVKLLVDLELSYG  2.01
36. DGAGATWQDSDTVKLLVDLELSYG  1.95
37. DGARRTWQDSDTVKLLVDLELSYG  1.93
38. DEAGRTWQDSDTVKLLVDLELSYG  1.91
39. DGAGITWQDSDTVKLLVDLELSYG  1.85
40. DSAGRTWQDSDTVKLLVDLELSYG  1.84
41. DGAGPTWQDSDTVKLLVDLELSYG  1.84
42. DGEGRTWQDSDTVKLLVDLELSYG  1.81
43. DGAARTWQDSDTVKLLVDLELSYG  1.8
44. DGRGRTWQDSDTVKLLVDLELSYG  1.79
45. DLAGRTWQDSDTVKLLVDLELSYG  1.74
46. DGAGFTWQDSDTVKLLVDLELSYG  1.74
47. DGNGRTWQDSDTVKLLVDLELSYG  1.73
48. EGAGRTWQDSDTVKLLVDLELSYG  1.69
49. GGAGRTWQDSDTVKLLVDLELSYG  1.68
50. DGKGRTWQDSDTVKLLVDLELSYG  1.65
51. DGAGGTWQDSDTVKLLVDLELSYG  1.64
52. DGAHRTWQDSDTVKLLVDLELSYG  1.62
53. QGAGRTWQDSDTVKLLVDLELSYG  1.53
54. DGDGRTWQDSDTVKLLVDLELSYG  1.53
55. DGAQRTWQDSDTVKLLVDLELSYG  1.43
56. DGVGRTWQDSDTVKLLVDLELSYG  1.41
57. DGSGRTWQDSDTVKLLVDLELSYG  1.4
58. DVAGRTWQDSDTVKLLVDLELSYG  1.39
59. DGHGRTWQDSDTVKLLVDLELSYG  1.39
60. DGAMRTWQDSDTVKLLVDLELSYG  1.35
61. NGAGRTWQDSDTVKLLVDLELSYG  1.32
62. DIAGRTWQDSDTVKLLVDLELSYG  1.28
63. DGPGRTWQDSDTVKLLVDLELSYG  1.13
64. DGAGCTWQDSDTVKLLVDLELSYG  1.13
65. DGIGRTWQDSDTVKLLVDLELSYG  1.09
66. DHAGRTWQDSDTVKLLVDLELSYG  1.07
